Two substances from PMC4460036 can be followed below.

The assay deals with Fibrillar-type I Horm collagen from equine tendon (equine). The assay can be described thus: not stated; apparent constants (KDapp) of recombinant soluble GPVI for collagen; method and conditions not told.

For the substance “GPVI-Fc (extracellular domain of human GPVI fused to the Fc domain of human Igs) (from UniProt Q9HCN6 21-267) (Fc fusion)”, the Kd was 5 nM.
Then “GPVI-His (extracellular domain of human GPVI fused to a poly-His tag) (from UniProt Q9HCN6 21-267) (domain or fragment)”, with 270 nM.
